To fix the notation:
B1: Zinc finger protein 473 (Homo sapiens), Q8WTR7 (parent)
chain: MAEEFVTLKDVGMDFTLGDWEQLGLEQGDTFWDTALDNCQDLFLLDPPRPNLTSHPDGSEDLEPLAGGSPEATSPDVTETKNSPLMEDFFEEGFSQEIIEMLSKDGFWNSNFGEACIEDTWLDSLLGDPESLLRSDIATNGESPTECKSHELKRGLSPVSTVSTGEDSMVHNVSEKTLTPAKSKEYRGEFFSYSDHSQQDSVQEGEKPYQCSECGKSFSGSYRLTQHWITHTREKPTVHQECEQGFDRNASLSVYPKTHTGYKFYVCNEYGTTFSQSTYLWHQKTHTGEKPCKSQDSDHPPSHDTQPGEHQKTHTDSKSYNCNECGKAFTRIFHLTRHQKIHTRKRYECSKCQATFNLRKHLIQHQKTHAAKTTSECQECGKIFRHSSLLIEHQALHAGEEPYKCNERGKSFRHNSTLKIHQRVHSGEKPYKCSECGKAFHRHTHLNEHRRIHTGYRPHKCQECVRSFSRPSHLMRHQAIHTAEKPYSCAECKETFSDNNRLVQHQKMHTVKTPYECQECGERFICGSTLKCHESVHAREKQGFFVSGKILDQNPEQKEKCFKCNKCEKTFSCSKYLTQHERIHTRGVKPFECDQCGKAFGQSTRLIHHQRIHSRVRLYKWGEQGKAISSASLIKLQSFHTKEHPFKCNECGKTFSHSAHLSKHQLIHAGENPFKCSKCDRVFTQRNYLVQHERTHARKKPLVCNECGKTFRQSSCLSKHQRIHSGEKPYVCDYCGKAFGLSAELVRHQRIHTGEKPYVCQECGKAFTQSSCLSIHRRVHTGEKPYRCGECGKAFAQKANLTQHQRIHTGEKPYSCNVCGKAFVLSAHLNQHLRVHTQETLYQCQRCQKAFRCHSSLSRHQRVHNKQQYCL
B2: Angiomotin (Homo sapiens), Q4VCS5 (parent)
chain: MRNSEEQPSGGTTVLQRLLQEQLRYGNPSENRSLLAIHQQATGNGPPFPSGSGNPGPQSDVLSPQDHHQQLVAHAARQEPQGQEIQSENLIMEKQLSPRMQNNEELPTYEEAKVQSQYFRGQQHASVGAAFYVTGVTNQKMRTEGRPSVQRLNPGKMHQDEGLRDLKQGHVRSLSERLMQMSLATSGVKAHPPVTSAPLSPPQPNDLYKNPTSSSEFYKAQGPLPNQHSLKGMEHRGPPPEYPFKGMPPQSVVCKPQEPGHFYSEHRLNQPGRTEGQLMRYQHPPEYGAARPAQDISLPLSARNSQPHSPTSSLTSGGSLPLLQSPPSTRLSPARHPLVPNQGDHSAHLPRPQQHFLPNQAHQGDHYRLSQPGLSQQQQQQQQQHHHHHHHQQQQQQQPQQQPGEAYSAMPRAQPSSASYQPVPADPFAIVSRAQQMVEILSDENRNLRQELEGCYEKVARLQKVETEIQRVSEAYENLVKSSSKREALEKAMRNKLEGEIRRMHDFNRDLRERLETANKQLAEKEYEGSEDTRKTISQLFAKNKESQREKEKLEAELATARSTNEDQRRHIEIRDQALSNAQAKVVKLEEELKKKQVYVDKVEKMQQALVQLQAACEKREQLEHRLRTRLERELESLRIQQRQGNCQPTNVSEYNAAALMELLREKEERILALEADMTKWEQKYLEENVMRHFALDAAATVAAQRDTTVISHSPNTSYDTALEARIQKEEEEILMANKRCLDMEGRIKTLHAQIIEKDAMIKVLQQRSRKEPSKTEQLSCMRPAKSLMSISNAGSGLLSHSSTLTGSPIMEEKRDDKSWKGSLGILLGGDYRAEYVPSTPSPVPPSTPLLSAHSKTGSRDCSTQTERGTESNKTAAVAPISVPAPVAAAATAAAITATAATITTTMVAAAPVAVAAAAAPAAAAAPSPATAAATAAAVSPAAAGQIPAAASVASAAAVAPSAAAAAAVQVAPAAPAPVPAPALVPVPAPAAAQASAPAQTQAPTSAPAVAPTPAPTPTPAVAQAEVPASPATGPGPHRLSIPSLTCNPDKTDGPVFHSNTLERKTPIQILGQEPDAEMVEYLI
partner: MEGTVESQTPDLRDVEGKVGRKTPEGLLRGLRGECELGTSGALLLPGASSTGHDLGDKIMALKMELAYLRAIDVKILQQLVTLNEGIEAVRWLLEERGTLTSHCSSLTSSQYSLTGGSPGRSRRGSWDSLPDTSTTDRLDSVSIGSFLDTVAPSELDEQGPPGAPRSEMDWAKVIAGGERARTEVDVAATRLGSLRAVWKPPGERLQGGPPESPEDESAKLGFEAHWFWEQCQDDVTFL
B3: Probable splicing factor YJU2B (Homo sapiens), P13994 (parent)
chain: MGERKGVNKYYPPDFNPEKHGSLNRYHNSHPLRERARKLSQGILIIRFEMPYNIWCDGCKNHIGMGVRYNAEKKKVGNYYTTPIYRFRMKCHLCVNYIEMQTDPANCDYVIVSGAQRKEERWDMADNEQVLTTEHEKKQKLETDAMFRLEHGEADRSTLKKALPTLSHIQEAQSAWKDDFALNSMLRRRFREKKKAIQEEEERDQALQAKASLTIPLVPETEDDRKLAALLKFHTLDSYEDKQKLKRTEIISRSWFPSAPGSASSSKVSGVLKKLAQSRRTALATSPITVGDLGIVRRRSRDVPESPQHAADTPKSGEPRVPEEAAQDRPMSPGDCPPETTETPKCSSPRGQEGSRQDKPLSPAGSSQEAADTPDTRHPCSLGSSLVADYSDSESE

Variants of B1 are the subject of one test. Conditions: with gpt2l_human GPATCH2L.
On to R605Q, for which the “effect of a mutation on the interaction” value is reported as “with no effect”.

For E309G, the “effect of a mutation on the interaction” value is “with no effect”.

Variants of B1 are the subject of a further test. Particulars: with zn792_human ZNF792, Q3KQV3.
Chain of zn792_human ZNF792, Q3KQV3 (Q3KQV3 whole entry): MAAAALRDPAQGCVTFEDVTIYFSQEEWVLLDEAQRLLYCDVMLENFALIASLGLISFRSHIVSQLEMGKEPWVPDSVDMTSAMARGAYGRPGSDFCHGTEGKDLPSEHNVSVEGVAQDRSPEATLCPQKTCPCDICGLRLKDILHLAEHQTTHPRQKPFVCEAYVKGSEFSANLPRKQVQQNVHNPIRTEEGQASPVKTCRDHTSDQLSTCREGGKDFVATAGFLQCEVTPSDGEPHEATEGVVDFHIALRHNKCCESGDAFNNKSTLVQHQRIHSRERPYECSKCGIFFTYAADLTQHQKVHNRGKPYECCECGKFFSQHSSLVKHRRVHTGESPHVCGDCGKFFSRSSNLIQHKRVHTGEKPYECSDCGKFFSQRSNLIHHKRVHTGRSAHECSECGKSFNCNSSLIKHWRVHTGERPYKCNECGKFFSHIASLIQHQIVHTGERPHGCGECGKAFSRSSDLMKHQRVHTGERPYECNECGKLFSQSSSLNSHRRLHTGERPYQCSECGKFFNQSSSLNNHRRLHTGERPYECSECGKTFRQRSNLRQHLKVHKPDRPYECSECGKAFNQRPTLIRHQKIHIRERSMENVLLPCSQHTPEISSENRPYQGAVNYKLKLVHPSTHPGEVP
For R605Q, the “effect of a mutation on the interaction” value is on record as “with no effect”.

Regarding T164M, the “effect of a mutation on the interaction” value was “with no effect”.

E309G: the “effect of a mutation on the interaction” value is on record as “with no effect”.

Another test covers variants of B1. Conditions: with aen_human AEN.
In the case of R605Q, the “effect of a mutation on the interaction” value is recorded as “with no effect”.

T164M: the “effect of a mutation on the interaction” value was “with no effect”.

With E309G, the “effect of a mutation on the interaction” value is on record as “with no effect”.

Variants of B1 are the subject of a further test. Conditions: with tri41_human TRIM41, Q8WV44.
Take T164M: the “effect of a mutation on the interaction” value was “with no effect”.

On to E309G, for which the “effect of a mutation on the interaction” value is recorded as “with no effect”.

In a further test the parent is B2. Particulars: with lura1_human LURAP1, Q96LR2.
On to T899A, for which the “effect of a mutation on the interaction” value is “with no effect”.

Variants of B3 are the subject of a further test. Particulars: with znf24_human ZNF24, P17028.
Chain of znf24_human ZNF24, P17028 (P17028 whole entry): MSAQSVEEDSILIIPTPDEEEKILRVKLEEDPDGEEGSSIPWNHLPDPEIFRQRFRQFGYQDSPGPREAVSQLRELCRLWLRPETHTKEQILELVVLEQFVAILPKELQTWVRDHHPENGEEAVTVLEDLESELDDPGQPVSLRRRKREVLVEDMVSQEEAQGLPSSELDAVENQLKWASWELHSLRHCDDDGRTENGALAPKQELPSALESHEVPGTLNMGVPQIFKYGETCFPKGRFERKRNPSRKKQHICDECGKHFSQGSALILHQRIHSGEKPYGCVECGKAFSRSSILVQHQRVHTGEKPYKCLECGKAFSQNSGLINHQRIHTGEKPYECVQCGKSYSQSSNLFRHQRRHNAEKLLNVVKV
As for S22C, the “effect of a mutation on the interaction” value is reported as “with no effect”.

The variants in another test derive from B3. Conditions: with traf2_human TRAF2, Q12933.
Chain of traf2_human TRAF2, Q12933 (Q12933 whole entry): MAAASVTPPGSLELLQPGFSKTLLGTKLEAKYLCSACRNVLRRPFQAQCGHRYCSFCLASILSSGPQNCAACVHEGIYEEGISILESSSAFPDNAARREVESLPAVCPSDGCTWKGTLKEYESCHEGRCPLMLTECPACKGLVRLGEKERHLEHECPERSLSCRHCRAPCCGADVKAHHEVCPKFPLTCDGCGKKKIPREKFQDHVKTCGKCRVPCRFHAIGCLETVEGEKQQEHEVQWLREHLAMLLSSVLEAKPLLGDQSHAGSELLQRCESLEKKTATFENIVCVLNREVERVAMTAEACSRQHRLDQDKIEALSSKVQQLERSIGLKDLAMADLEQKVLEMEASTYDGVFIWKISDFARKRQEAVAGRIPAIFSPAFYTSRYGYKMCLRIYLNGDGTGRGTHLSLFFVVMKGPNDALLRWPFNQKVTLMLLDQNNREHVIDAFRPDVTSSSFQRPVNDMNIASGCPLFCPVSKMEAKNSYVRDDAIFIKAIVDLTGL
Regarding S22C, the “effect of a mutation on the interaction” value is on record as “with no effect”.

For the origin of these results see IntAct's records for PubMed 31515488.
